The assay deals with CRM1-HA (chromosome region maintenance 1) (human (HeLa cell cDNA)) (UniProt O14980). Kind of assay: pull-down.
Sequence of UniProt O14980 (O14980 whole entry): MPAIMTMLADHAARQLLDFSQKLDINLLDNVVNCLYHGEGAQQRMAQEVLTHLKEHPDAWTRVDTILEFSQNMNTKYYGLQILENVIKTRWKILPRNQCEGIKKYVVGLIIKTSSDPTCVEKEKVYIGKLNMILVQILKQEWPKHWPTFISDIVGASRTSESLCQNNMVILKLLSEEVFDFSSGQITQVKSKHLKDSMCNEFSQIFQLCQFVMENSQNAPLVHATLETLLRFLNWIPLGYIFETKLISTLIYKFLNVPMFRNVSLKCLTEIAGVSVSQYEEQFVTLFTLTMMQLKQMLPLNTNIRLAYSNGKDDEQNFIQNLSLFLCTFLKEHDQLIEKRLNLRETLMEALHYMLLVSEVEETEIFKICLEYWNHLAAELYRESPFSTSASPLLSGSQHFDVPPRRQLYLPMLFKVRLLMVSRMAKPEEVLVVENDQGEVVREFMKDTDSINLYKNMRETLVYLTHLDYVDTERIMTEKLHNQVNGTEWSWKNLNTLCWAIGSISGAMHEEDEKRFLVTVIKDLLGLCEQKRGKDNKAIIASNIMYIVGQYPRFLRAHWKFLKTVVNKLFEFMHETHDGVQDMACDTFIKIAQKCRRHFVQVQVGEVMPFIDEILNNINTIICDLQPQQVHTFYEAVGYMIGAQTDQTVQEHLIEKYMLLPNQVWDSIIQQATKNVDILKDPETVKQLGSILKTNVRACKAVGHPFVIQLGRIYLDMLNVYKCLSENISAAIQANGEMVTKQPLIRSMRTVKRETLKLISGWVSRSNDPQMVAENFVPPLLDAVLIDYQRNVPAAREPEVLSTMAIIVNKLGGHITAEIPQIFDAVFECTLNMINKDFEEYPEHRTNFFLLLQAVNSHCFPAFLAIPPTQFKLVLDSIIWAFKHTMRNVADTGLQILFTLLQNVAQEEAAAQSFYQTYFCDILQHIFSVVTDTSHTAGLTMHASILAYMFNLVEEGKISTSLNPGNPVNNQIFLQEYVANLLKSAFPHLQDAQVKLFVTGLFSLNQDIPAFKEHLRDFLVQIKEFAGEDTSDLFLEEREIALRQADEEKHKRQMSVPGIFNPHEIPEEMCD

Take “NP-FLAG (wild-type nucleoprotein of influenza A/WSN/33) (from UniProt P15682 1-498) (natural protein)”: the CRM1 binding (%WT) was 100 % of WT.
